In patent publication US20260041702A1:
Values belong to the molecule of their own block, whether it stands above or below them.

Legend:
[1] = molecular target: TRFE receptor, TRF1, on Rat2 fibroblasts (rat) (UniProt Q99376); experiment: HATRIC-LRC (LRC-TriCEPS) ligand-receptor capture on Rat2 fibroblasts, LC-MS/MS; positive control of the screen
[2] = molecular target: GPC1 on Rat2 fibroblasts (rat) (UniProt P35053); experiment: HATRIC-LRC (LRC-TriCEPS) ligand-receptor capture on Rat2 fibroblasts, LC-MS/MS; reference TRFE control ligand
[3] = molecular target: PTK7 on Rat2 fibroblasts (rat); experiment: as above
[4] = molecular target: CCN1 found in the Rat2 cell screen (rat) (UniProt Q9ES72); experiment: as above
[5] = molecular target: GPC1 on Rat2 fibroblasts (rat) (UniProt P35053); experiment: HATRIC-LRC (LRC-TriCEPS) ligand-receptor capture on Rat2 fibroblasts, LC-MS/MS; reference BSA control ligand
[6] = molecular target: PTK7 on Rat2 fibroblasts (rat); experiment: as above
[7] = molecular target: CCN1 found in the Rat2 cell screen (rat) (UniProt Q9ES72); experiment: as above
[8] = molecular target: CCN1 found in the HEK293A cell screen (human) (UniProt O00622); experiment: HATRIC-LRC (LRC-TriCEPS) ligand-receptor capture on HEK293A cells, LC-MS/MS; reference BSA control ligand
[9] = molecular target: PTK7 on HEK293A cells (human) (UniProt Q13308); experiment: as above
[10] = molecular target: GPC1 on HEK293A cells (human) (UniProt P35052); experiment: as above
[11] = molecular target: GPC4 on HEK293A cells (human) (UniProt O75487); experiment: as above
[12] = molecular target: CCN1 found in the HEK293A cell screen (human) (UniProt O00622); experiment: HATRIC-LRC (LRC-TriCEPS) ligand-receptor capture on HEK293A cells, LC-MS/MS; reference TRFE control ligand
[13] = molecular target: PTK7 on HEK293A cells (human) (UniProt Q13308); experiment: as above
[14] = molecular target: GPC1 on HEK293A cells (human) (UniProt P35052); experiment: as above
[15] = molecular target: GPC4 on HEK293A cells (human) (UniProt O75487); experiment: as above

Chain of UniProt O75487 (O75487 19-529 limits assumed): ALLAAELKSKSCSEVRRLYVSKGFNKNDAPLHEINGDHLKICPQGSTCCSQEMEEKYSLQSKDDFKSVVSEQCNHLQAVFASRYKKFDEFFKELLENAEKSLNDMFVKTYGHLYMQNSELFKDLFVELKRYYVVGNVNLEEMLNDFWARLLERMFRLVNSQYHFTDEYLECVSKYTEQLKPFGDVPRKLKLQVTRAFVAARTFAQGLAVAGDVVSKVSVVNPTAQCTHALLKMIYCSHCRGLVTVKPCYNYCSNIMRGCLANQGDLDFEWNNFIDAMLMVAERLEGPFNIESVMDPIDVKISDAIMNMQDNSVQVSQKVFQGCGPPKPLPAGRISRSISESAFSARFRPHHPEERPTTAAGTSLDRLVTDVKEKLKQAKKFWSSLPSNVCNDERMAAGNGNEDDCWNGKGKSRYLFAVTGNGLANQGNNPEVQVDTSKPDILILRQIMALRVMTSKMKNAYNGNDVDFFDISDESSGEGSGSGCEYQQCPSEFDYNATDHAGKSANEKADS
Chain of UniProt O00622 (O00622 25-381 limits assumed): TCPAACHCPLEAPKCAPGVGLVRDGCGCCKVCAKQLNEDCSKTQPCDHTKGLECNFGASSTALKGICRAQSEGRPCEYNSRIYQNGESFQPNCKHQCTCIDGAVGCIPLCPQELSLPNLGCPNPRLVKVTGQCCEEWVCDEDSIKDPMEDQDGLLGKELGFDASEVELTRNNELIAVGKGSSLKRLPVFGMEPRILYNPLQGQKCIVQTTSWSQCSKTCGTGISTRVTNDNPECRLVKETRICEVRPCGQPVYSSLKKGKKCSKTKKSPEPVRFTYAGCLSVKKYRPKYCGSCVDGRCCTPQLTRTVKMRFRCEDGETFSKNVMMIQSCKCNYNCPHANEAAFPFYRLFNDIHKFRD
Chain of UniProt Q13308 (Q13308 31-1070 limits assumed): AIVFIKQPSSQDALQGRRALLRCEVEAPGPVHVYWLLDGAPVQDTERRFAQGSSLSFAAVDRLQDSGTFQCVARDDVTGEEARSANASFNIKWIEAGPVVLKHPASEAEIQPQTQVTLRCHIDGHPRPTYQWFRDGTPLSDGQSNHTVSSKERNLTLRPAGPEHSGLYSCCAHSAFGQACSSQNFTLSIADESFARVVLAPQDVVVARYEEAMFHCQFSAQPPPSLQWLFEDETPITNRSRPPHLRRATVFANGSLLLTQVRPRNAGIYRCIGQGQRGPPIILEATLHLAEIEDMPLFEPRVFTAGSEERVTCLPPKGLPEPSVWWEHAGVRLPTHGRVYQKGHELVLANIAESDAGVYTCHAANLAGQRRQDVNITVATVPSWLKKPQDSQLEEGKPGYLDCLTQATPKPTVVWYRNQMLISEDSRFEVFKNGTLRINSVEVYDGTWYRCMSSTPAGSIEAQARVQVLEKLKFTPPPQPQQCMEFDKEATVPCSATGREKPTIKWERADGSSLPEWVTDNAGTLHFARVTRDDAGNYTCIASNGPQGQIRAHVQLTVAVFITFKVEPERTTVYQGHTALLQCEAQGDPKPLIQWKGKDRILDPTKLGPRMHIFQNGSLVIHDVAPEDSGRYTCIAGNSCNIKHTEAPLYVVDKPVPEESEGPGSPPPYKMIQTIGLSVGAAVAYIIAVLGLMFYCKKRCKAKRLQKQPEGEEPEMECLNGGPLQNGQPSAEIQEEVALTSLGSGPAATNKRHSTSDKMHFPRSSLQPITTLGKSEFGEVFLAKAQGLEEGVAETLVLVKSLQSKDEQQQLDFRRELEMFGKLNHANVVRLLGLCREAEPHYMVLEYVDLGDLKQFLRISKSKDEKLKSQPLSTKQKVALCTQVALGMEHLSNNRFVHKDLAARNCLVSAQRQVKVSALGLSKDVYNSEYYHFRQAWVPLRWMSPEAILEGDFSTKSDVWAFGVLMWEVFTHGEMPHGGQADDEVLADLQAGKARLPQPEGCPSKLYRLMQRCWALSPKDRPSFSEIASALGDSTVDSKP
Chain of UniProt P35052 (P35052 24-530 limits assumed): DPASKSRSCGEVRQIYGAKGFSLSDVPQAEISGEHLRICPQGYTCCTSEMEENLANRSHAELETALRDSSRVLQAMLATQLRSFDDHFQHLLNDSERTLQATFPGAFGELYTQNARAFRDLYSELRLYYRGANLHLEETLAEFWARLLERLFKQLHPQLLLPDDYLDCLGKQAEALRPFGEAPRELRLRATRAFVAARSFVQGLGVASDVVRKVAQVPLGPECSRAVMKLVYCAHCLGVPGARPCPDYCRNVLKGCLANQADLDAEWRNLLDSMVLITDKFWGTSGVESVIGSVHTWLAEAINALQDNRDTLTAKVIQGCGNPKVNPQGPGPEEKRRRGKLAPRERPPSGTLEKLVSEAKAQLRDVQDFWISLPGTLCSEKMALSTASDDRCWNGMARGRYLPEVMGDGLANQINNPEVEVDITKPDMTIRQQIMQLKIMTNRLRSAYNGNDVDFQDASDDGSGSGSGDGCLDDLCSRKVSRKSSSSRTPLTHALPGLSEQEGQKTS
Chain of UniProt P35053 (P35053 24-530): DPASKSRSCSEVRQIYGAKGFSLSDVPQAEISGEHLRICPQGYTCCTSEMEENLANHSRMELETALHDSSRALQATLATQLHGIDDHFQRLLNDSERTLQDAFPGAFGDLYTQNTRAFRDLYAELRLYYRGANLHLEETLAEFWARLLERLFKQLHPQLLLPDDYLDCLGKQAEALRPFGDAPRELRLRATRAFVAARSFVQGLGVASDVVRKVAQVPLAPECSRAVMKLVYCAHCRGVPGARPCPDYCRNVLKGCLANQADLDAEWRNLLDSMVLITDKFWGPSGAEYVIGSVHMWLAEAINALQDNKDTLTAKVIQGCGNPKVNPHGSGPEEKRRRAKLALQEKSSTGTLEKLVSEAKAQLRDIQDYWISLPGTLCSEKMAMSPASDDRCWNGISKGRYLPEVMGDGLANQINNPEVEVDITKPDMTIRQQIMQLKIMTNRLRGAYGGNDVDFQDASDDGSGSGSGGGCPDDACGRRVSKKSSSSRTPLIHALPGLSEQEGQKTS
Chain of UniProt Q9ES72 (Q9ES72 25-379 limits assumed): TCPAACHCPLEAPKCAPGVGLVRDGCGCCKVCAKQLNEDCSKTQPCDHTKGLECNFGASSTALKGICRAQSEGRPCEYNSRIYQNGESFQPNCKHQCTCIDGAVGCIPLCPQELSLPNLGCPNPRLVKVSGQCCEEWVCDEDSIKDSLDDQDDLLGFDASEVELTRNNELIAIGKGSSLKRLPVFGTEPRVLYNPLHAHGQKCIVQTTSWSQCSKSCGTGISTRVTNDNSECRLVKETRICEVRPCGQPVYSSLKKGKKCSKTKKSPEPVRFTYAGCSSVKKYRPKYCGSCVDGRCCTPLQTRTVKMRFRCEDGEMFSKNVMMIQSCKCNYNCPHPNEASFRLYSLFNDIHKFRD
Chain of UniProt Q99376 (Q99376 whole entry): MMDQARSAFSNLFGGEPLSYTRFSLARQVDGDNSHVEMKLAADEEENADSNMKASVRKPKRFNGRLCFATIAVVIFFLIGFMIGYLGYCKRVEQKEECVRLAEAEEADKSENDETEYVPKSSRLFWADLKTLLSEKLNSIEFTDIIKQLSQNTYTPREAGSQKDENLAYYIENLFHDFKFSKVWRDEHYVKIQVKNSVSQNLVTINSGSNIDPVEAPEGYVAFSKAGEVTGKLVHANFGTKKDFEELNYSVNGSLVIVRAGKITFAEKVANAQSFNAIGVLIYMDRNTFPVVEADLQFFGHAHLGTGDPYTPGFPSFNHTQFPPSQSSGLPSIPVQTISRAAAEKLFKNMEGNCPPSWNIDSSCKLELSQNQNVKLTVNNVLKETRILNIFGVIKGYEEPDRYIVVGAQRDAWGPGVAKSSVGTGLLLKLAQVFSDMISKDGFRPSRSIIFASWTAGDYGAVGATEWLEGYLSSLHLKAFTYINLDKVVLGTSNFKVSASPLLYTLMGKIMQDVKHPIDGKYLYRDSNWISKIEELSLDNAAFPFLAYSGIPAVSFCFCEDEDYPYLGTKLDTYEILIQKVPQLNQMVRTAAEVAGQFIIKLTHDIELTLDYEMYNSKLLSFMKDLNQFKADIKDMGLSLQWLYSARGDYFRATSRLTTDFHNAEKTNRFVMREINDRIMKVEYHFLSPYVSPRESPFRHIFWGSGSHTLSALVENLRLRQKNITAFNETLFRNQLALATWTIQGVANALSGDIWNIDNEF

- log 2 (FC), TRFE group against d34CCN2 group (log2 fold change) [1]: -2.8
Molecule: transferrin (TRFE) coupled to TriCEPS v3.0 (ligand)

- log 2 (FC) enrichment relative to TRFE (log2 fold change) [2]: 4.4
- log 2 (FC) enrichment relative to TRFE (log2 fold change) [3]: 3
- log 2 (FC) enrichment relative to TRFE (log2 fold change) [4]: 4.1
- log 2 (FC) enrichment relative to BSA (log2 fold change) [5]: 4.2
- log 2 (FC) enrichment relative to BSA (log2 fold change) [6]: 2.7
- log 2 (FC) enrichment relative to BSA (log2 fold change) [7]: 3.4
- log 2 (FC) enrichment relative to BSA (log2 fold change) [8]: 5.63
- log 2 (FC) enrichment relative to BSA (log2 fold change) [9]: 3.26
- log 2 (FC) enrichment relative to BSA (log2 fold change) [10]: 2.85
- log 2 (FC) enrichment relative to BSA (log2 fold change) [11]: 2.85
- log 2 (FC) enrichment relative to TRFE (log2 fold change) [12]: 4.73
- log 2 (FC) enrichment relative to TRFE (log2 fold change) [13]: 3.09
- log 2 (FC) enrichment relative to TRFE (log2 fold change) [14]: 4.19
- log 2 (FC) enrichment relative to TRFE (log2 fold change) [15]: 2.84
B1: recombinant, human C-terminal (domains III-IV) CCN2 coupled to TriCEPS v3.0 (ligand, UniProt P29279 197-349, looked up)
chain: ANCLVQTTEWSACSKTCGMGISTRVTNDNASCRLEKQSRLCMVRPCEADLEENIKKGKKCIRTPKISKPIKFELSGCTSMKTYRAKFCGVCTDGRCCTPHRTTTLPVEFKCPDGEVMKKNMMFIKTCACHYNCPGDNDIFESLYYRKMYGDMA
modifications: coupled to the trifunctional TriCEPS v3.0 molecule (site of coupling not stated)
